{"source": "patent US20190338269", "key": {"[1]": {"target": "T1, FVIIv1-psFX-IIa-F2 (FX-IIa expressed with the factor X signal peptide and the FVII isoform v1 propeptide, from HEK, aptamer-purified)", "T1 chain 1": "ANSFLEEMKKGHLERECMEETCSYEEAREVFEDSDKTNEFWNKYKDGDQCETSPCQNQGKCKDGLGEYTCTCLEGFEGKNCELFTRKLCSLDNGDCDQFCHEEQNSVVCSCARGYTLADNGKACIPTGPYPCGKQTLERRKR", "T1 chain 2": "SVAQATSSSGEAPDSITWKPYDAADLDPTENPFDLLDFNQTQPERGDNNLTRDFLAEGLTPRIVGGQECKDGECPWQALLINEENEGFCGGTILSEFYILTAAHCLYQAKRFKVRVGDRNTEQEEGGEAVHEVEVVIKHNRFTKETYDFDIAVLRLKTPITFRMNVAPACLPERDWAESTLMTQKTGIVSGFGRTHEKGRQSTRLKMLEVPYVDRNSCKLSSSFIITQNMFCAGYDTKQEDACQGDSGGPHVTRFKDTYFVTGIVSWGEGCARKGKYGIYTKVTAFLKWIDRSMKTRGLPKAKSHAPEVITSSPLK"}, "[2]": {"target": "T2, Opti-HEK-VKOR-IIa (FX-IIa with the factor X signal peptide and factor X propeptide variant, co-expressed with human VKOR in HEK, aptamer-purified)", "T2 chain 1": "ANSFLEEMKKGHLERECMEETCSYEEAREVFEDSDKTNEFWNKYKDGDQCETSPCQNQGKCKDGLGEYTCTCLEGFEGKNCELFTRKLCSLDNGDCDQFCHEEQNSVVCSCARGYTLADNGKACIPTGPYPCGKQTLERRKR", "T2 chain 2": "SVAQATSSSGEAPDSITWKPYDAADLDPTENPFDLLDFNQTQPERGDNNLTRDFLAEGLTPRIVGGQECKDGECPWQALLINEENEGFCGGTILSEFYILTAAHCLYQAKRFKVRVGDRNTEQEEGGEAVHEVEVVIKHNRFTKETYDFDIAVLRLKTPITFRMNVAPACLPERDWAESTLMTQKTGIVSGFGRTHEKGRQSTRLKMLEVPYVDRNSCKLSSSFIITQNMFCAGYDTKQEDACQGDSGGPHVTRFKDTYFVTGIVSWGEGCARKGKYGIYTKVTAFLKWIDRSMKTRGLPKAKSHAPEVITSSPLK"}}, "data": [{"protein": "factor VIIa/tissue factor (TF) complex (protein) chain 1: ANAFLEELRPGSLERECKEEQCSFEEAREIFKDAERTKLFWISYSDGDQCASSPCQNGGSCKDQLQSYICFCLPAFEGRNCETHKDDQLICVNENGGCEQYCSDHTGTKRSCRCHEGYSLLADGVSCTPTVEYPCGKIPILEKRNASKPQGRIVGGKVCPKGECPWQVLLLVNGAQLCGGTLINTIWVVSAAHCFDKIKNWRNLIAVLGEHDLSEHDGDEQSRRVAQVIIPSTYVPGTTNHDIALLRLHQPVVLTDHVVPLCLPERTFSERTLAFVRFSLVSGWGQLLDRGATALELMVLNVPRLMTQDCLQQSRKVGDSPNITEYMFCAGYSDGSKDSCKGDSGGPHATHYRGTWYLTGIVSWGQGCATVGHFGVYTRVSQYIEWLQKLMRSEPRPGVLLRAPFP chain 2: SGTTNTVAAYNLTWKSTNFKTILEWEPKPVNQVYTVQISTKSGDWKSKCFYTTDTECDLTDEIVKDVKQTYLARVFSYPAGNVESTGSAGEPLYENSPEFTPYLETNLGQPTIQSFEQVGTKVNVTVEDERTLVRRNNTFLSLRDVFGKDLIYTLYYWKSSSSGKKTAKTNTNEFLIDVDKGENYCFSVQAVIPSRTVNRKSTDSPVECMGQEKGEFREIFYIIGAVVFVVIILVIILAISLHKCRKAGVGQSWKENSPLNVS", "values": [{"measurement": "FXa generated after incubation with FVIIa/TF (rate of hydrolysis of PNAPEP substrate), percent of the plasma FXa control", "setting": "[1]", "result": "36% activated relative to the FXa for FVIIv1-psFX-IIa-F2"}, {"measurement": "activity after FVIIa/TF activation, percent of that of the molecule containing the wild-type propeptide (Opti-HEK-VKOR-IIa)", "setting": "[1]", "result": "an activity of 142% of that of the molecule containing the wild-type propeptide"}, {"measurement": "FXa generated after incubation with FVIIa/TF (rate of hydrolysis of PNAPEP substrate), percent of the plasma FXa control", "setting": "[2]", "result": "27% activated relative to the FXa for Opti-HEK-VKOR-IIa"}]}]}
